Tests used:
[1] = test system: wt STAT3beta, Src-phosphorylated (pY705); experiment: EMSA with unlabelled hSIE competition; conditions: not given in the material (Supporting Information not held)
[2] = test system: 7HC-STAT3beta, Src-phosphorylated (pY705); experiment: EMSA with unlabelled hSIE competition; conditions: not given in the material (Supporting Information not held)

In the case of “hSIE (high-affinity sis-inducible element) probe”, the Kd [1] is reported as 6.3 nM and the Kd [2] is reported as 6.8 nM.
